# Measurements published in paper PMC4823748, “Production of FAME biodiesel in E. coli by direct methylation with an insect enzyme” (Scientific Reports, 2016).
# Substrate: CCCCCCCCCCCC(=O)O
# Assay: MTAN/LuxS-coupled DTNB colorimetric methyltransferase assay
# Format: biochemical, Drosophila melanogaster
# Conditions: 500 μM SAM, 50 mM potassium phosphate pH 8.0, 30 °C, 3 μM enzyme, 5–200 μM lauric acid
protein,measurement,value
"DmJHAMT (Drosophila melanogaster) (protein, primers encode N-terminus MNQASLYQH and C-terminus QNLVKGIN-stop) MNQASLYQHANQVQRHDAKLILDEFASTMQWRSDGEDALLDVGSGSGNVLMDFVKPLLPIRGQLVGTDISSQMVHYASKHYQREERTRFQVLDIGCERLPEELSGRFDHVTSFYCLHWVQNLKGALGNIYNLLKPEGGDCLLAFLASNPVYEVYKILKTNDKWSTFMQDVENFISPLHYSLSPGEEFSQLLNDVGFVQHNVEIRNEVFVYEGVRTLKDNVKAICPFLERMPADLHEQFLDDFIDIVISMNLQQGENNEDQKFLSPYKLVVAYARKTPEFVNNVFLEPTHQNLVKGIN",Km,59 µM
same,kcat,0.0025 s⁻¹
